In the RNAGym collection of RNA variant scans (doi:10.1021/acssynbio.7b00057):

B1: Pistol ribozyme (parent)
chain: GGGUCGUUGUUCCAUAAUCGCGUGGAUAUGGCACGCAAGUUUCUACCGGGCACCGUAAAUGUCCGACUGGAGCCGUUCGGGCGGCUAUAAACAGACCUCAGGCCCGAAGCGUGGCGGCACCUGCCGCCGGUGGUAAAAAAGAUCGGAAGAGCACACGUCU

Variants of: B1
Test: aptazyme ON/OFF ratio, guanine; higher = stronger switching; co-transcriptional cleavage with and without guanine

Going from GGGUCGUCGCCUAAUAAUCGCGUGGAUAUGGCACGCAAGUUUCUACCGGGCACCGUAAAUGUCCGACUGGAGCCGUUCGGGCGGCUAUAAACAGACCUCAGGCCCGAAGCGUGGCGGCACCUGCCGCCGGUGGUAAAAAAGAUCGGAAGAGCACACGUCU [U8C U10C U11C C12U C13A] to GGGUCGUCGCCUGAUAAUCGCGUGGAUAUGGCACGCAAGUUUCUACCGGGCACCGUAAAUGUCCGACUGGAGCCGUUCGGGCGGCUAUAAACAGACCUCAGGCCCGAAGCGUGGCGGCACCUGCCGCCGGUGGUAAAAAAGAUCGGAAGAGCACACGUCU [U8C U10C U11C C12U C13G], the “aptazyme ON/OFF ratio” value rises from 1.23 to 1.26.

Going from GGGUCGUCGCCUUAUAAUCGCGUGGAUAUGGCACGCAAGUUUCUACCGGGCACCGUAAAUGUCCGACUGGAGCCGUUCGGGCGGCUAUAAACAGACCUCAGGCCCGAAGCGUGGCGGCACCUGCCGCCGGUGGUAAAAAAGAUCGGAAGAGCACACGUCU [U8C U10C U11C C12U C13U] to GGGUCGUCGCCUCAUAAUCGCGUGGAUAUGGCACGCAAGUUUCUACCGGGCACCGUAAAUGUCCGACUGGAGCCGUUCGGGCGGCUAUAAACAGACCUCAGGCCCGAAGCGUGGCGGCACCUGCCGCCGGUGGUAAAAAAGAUCGGAAGAGCACACGUCU [U8C U10C U11C C12U], the “aptazyme ON/OFF ratio” value rises from 1.28 to 1.44.

Compared with GGGUCGUCGCCGCAUAAUCGCGUGGAUAUGGCACGCAAGUUUCUACCGGGCACCGUAAAUGUCCGACUGGAGCCGUUCGGGCGGCUAUAAACAGACCUCAGGCCCGAAGCGUGGCGGCACCUGCCGCCGGUGGUAAAAAAGAUCGGAAGAGCACACGUCU [U8C U10C U11C C12G], GGGUCGUCGCCACAUAAUCGCGUGGAUAUGGCACGCAAGUUUCUACCGGGCACCGUAAAUGUCCGACUGGAGCCGUUCGGGCGGCUAUAAACAGACCUCAGGCCCGAAGCGUGGCGGCACCUGCCGCCGGUGGUAAAAAAGAUCGGAAGAGCACACGUCU [U8C U10C U11C C12A] is higher in “aptazyme ON/OFF ratio” value: 1.18 for the first, 1.25 for the second.

Going from GGGUCGUCGCACUAUAAUCGCGUGGAUAUGGCACGCAAGUUUCUACCGGGCACCGUAAAUGUCCGACUGGAGCCGUUCGGGCGGCUAUAAACAGACCUCAGGCCCGAAGCGUGGCGGCACCUGCCGCCGGUGGUAAAAAAGAUCGGAAGAGCACACGUCU [U8C U10C U11A C13U] to GGGUCGUCGCACAAUAAUCGCGUGGAUAUGGCACGCAAGUUUCUACCGGGCACCGUAAAUGUCCGACUGGAGCCGUUCGGGCGGCUAUAAACAGACCUCAGGCCCGAAGCGUGGCGGCACCUGCCGCCGGUGGUAAAAAAGAUCGGAAGAGCACACGUCU [U8C U10C U11A C13A], the “aptazyme ON/OFF ratio” value rises from 1.28 to 1.32.

First: GGGUCGUCGCACGAUAAUCGCGUGGAUAUGGCACGCAAGUUUCUACCGGGCACCGUAAAUGUCCGACUGGAGCCGUUCGGGCGGCUAUAAACAGACCUCAGGCCCGAAGCGUGGCGGCACCUGCCGCCGGUGGUAAAAAAGAUCGGAAGAGCACACGUCU [U8C U10C U11A C13G]
Second: GGGUCGUCGCGCCAUAAUCGCGUGGAUAUGGCACGCAAGUUUCUACCGGGCACCGUAAAUGUCCGACUGGAGCCGUUCGGGCGGCUAUAAACAGACCUCAGGCCCGAAGCGUGGCGGCACCUGCCGCCGGUGGUAAAAAAGAUCGGAAGAGCACACGUCU [U8C U10C U11G]
The “aptazyme ON/OFF ratio” value of the first is lower: 1.23 for the first, 1.42 for the second.

Going from GGGUCGUCGCCCCAUAAUCGCGUGGAUAUGGCACGCAAGUUUCUACCGGGCACCGUAAAUGUCCGACUGGAGCCGUUCGGGCGGCUAUAAACAGACCUCAGGCCCGAAGCGUGGCGGCACCUGCCGCCGGUGGUAAAAAAGAUCGGAAGAGCACACGUCU [U8C U10C U11C] to GGGUCGUCGCCCUAUAAUCGCGUGGAUAUGGCACGCAAGUUUCUACCGGGCACCGUAAAUGUCCGACUGGAGCCGUUCGGGCGGCUAUAAACAGACCUCAGGCCCGAAGCGUGGCGGCACCUGCCGCCGGUGGUAAAAAAGAUCGGAAGAGCACACGUCU [U8C U10C U11C C13U], the “aptazyme ON/OFF ratio” value falls from 1.85 to 1.08.

Going from GGGUCGUCGCCCAAUAAUCGCGUGGAUAUGGCACGCAAGUUUCUACCGGGCACCGUAAAUGUCCGACUGGAGCCGUUCGGGCGGCUAUAAACAGACCUCAGGCCCGAAGCGUGGCGGCACCUGCCGCCGGUGGUAAAAAAGAUCGGAAGAGCACACGUCU [U8C U10C U11C C13A] to GGGUCGUCGCCCGAUAAUCGCGUGGAUAUGGCACGCAAGUUUCUACCGGGCACCGUAAAUGUCCGACUGGAGCCGUUCGGGCGGCUAUAAACAGACCUCAGGCCCGAAGCGUGGCGGCACCUGCCGCCGGUGGUAAAAAAGAUCGGAAGAGCACACGUCU [U8C U10C U11C C13G], the “aptazyme ON/OFF ratio” value rises from 1.08 to 1.19.

Going from GGGUCGUCGCCAGAUAAUCGCGUGGAUAUGGCACGCAAGUUUCUACCGGGCACCGUAAAUGUCCGACUGGAGCCGUUCGGGCGGCUAUAAACAGACCUCAGGCCCGAAGCGUGGCGGCACCUGCCGCCGGUGGUAAAAAAGAUCGGAAGAGCACACGUCU [U8C U10C U11C C12A C13G] to GGGUCGUCGCCAUAUAAUCGCGUGGAUAUGGCACGCAAGUUUCUACCGGGCACCGUAAAUGUCCGACUGGAGCCGUUCGGGCGGCUAUAAACAGACCUCAGGCCCGAAGCGUGGCGGCACCUGCCGCCGGUGGUAAAAAAGAUCGGAAGAGCACACGUCU [U8C U10C U11C C12A C13U], the “aptazyme ON/OFF ratio” value rises from 1.33 to 1.36.

First: GGGUCGUCGCCAAAUAAUCGCGUGGAUAUGGCACGCAAGUUUCUACCGGGCACCGUAAAUGUCCGACUGGAGCCGUUCGGGCGGCUAUAAACAGACCUCAGGCCCGAAGCGUGGCGGCACCUGCCGCCGGUGGUAAAAAAGAUCGGAAGAGCACACGUCU [U8C U10C U11C C12A C13A]
Second: GGGUCGUCGCAUCAUAAUCGCGUGGAUAUGGCACGCAAGUUUCUACCGGGCACCGUAAAUGUCCGACUGGAGCCGUUCGGGCGGCUAUAAACAGACCUCAGGCCCGAAGCGUGGCGGCACCUGCCGCCGGUGGUAAAAAAGAUCGGAAGAGCACACGUCU [U8C U10C U11A C12U]
The “aptazyme ON/OFF ratio” value of the first is lower: 1.32 for the first, 1.39 for the second.
